Measured values: paper PMC5714288

Target: pyruvate kinase isoform M2 (PKM2) (human (endogenous in U1 and U937)) (UniProt P14618)
Assay: native gel or EMSA

Chain of pyruvate kinase isoform M2 (PKM2), P14618 1-531 (natural protein; other documents disagree on this pair) (P14618 whole entry, canonical isoform): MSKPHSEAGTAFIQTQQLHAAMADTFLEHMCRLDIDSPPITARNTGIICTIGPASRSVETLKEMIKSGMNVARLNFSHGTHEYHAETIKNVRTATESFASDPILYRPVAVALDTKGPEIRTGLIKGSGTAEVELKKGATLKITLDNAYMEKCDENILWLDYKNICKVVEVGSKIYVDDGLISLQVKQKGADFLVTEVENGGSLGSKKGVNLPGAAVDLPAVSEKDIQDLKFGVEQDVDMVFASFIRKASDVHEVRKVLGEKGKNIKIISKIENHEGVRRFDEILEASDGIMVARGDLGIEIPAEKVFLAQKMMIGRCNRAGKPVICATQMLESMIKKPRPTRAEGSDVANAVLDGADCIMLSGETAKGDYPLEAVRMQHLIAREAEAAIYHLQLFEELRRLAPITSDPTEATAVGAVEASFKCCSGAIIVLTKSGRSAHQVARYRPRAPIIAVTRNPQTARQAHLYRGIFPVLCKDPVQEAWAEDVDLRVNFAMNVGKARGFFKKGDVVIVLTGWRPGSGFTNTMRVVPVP

stoichiometry N: 2
Substance: pyruvate kinase isoform M2 (PKM2), P14618 1-531 (natural protein; other documents disagree on this pair)
